# Laboratory results: patent US20230338569A1, “NaPi2b-TARGETED POLYMER ANTIBODY-DRUG CONJUGATE FOR THE TREATMENT OF OVARIAN CANCER” (Mersana Therapeutics, Inc., priority 2021, published 2023)
# B1: XMT-1536: NaPi2b-targeted polymer antibody-drug conjugate: about 8-12 AF-HPA molecules conjugated to cysteines of antibody XMT-1535 via a PHF scaffold (conjugate, chains of the INN, looked up)
# VH: QVQLVQSGAEVVKPGASVKMSCKASGYTFTGYNIHWVKQAPGQGLEWIGAIYPGNGDTSYKQKFRGRATLTADTSTSTVYMELSSLRSEDSAVYYCARGETARATFAYWGQGTLVTVSS
# VL: DIQMTQSPSSLSASVGDRVTITCSASQDIGNFLNWYQQKPGKTVKVLIYYTSSLYSGVPSRFSGSGSGTDYTLTISSLQPEDFATYYCQQYSKLPLTFGQGTKLELK
# modifications: AF-HPA payload via PHF polymer scaffold
# notes: NaPi2b-targeted polymer antibody-drug conjugate: about 8-12 AF-HPA molecules conjugated to cysteines of antibody XMT-1535 via a PHF scaffold
# System: patients with higher NaPi2b expression
# Assay: MER-XMT-1536-1 clinical trial (ongoing, preliminary data), XMT-1536 monotherapy
# Type: in vivo, human
# Conditions: patients with higher NaPi2b expression (n=47); preliminary data from MER-XMT-1536-1
molecule,measurement,value
B1,DCR (disease control rate),74%
same,ORR (objective response rate),32%
same,median duration of response,approximately 5 months
